# Experimental data taken from patent US20130244255A1 (published 2013).
# “And” between values parts separate entries of the source, which are not always exact repeats. Equal entries are not always repeated.
# T1: GPNMB (CG56972) as expressed by human cell lines (human, UniProt Q14956 23-492)
# T1 construct: Endogenous or transfected full-length protein on cells (FACS, killing assays) or in cell lysates (immunoprecipitation, blot); also called native GPNMB protein
# T1 sequence: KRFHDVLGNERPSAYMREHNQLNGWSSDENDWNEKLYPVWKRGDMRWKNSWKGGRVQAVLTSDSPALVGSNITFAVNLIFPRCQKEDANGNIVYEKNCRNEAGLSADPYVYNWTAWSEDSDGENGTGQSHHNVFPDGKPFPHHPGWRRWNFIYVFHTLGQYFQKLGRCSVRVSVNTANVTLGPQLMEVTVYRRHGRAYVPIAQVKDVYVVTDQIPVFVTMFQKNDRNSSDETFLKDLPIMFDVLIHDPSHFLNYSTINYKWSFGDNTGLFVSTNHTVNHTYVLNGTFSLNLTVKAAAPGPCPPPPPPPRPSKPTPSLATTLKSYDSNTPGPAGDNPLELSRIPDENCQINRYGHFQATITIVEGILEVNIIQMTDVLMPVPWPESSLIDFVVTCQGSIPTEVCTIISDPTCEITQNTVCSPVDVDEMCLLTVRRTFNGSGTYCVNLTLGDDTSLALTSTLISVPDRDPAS
# T2: Recombinant human GPNMB extra-cellular domain (ECD) with a C-terminus V5-HIS tag (human, UniProt Q14956 23-492)
# T2 construct: Expressed in HEK293; also called GPNMB-V5His; GPNMB-soluble
# T2 sequence: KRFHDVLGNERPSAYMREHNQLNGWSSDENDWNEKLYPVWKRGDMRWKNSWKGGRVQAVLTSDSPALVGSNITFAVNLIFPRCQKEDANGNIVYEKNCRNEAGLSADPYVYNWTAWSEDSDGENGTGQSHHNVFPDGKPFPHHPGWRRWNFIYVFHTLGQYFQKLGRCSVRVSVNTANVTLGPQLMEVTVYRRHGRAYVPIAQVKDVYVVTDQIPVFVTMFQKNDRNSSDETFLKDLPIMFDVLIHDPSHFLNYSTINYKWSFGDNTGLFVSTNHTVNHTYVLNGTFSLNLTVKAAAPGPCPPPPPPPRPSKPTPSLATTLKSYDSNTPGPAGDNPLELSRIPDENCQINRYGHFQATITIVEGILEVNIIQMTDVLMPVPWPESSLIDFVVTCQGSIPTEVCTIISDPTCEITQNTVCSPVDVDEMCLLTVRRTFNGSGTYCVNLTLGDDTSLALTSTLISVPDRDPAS
# Key:
# [1] = target: T1, GPNMB (CG56972) as expressed by human …; test: FACS on UACC-62 cells, antibody 1 ug/mL
# Protocol: The specificity of anti-GPNMB antibodies to cell membrane-bound GPNMB protein expressed by melanoma cancer cell line, UACC-62 was analyzed by FACS analysis. […] Cells were washed twice with PBS (Ca and Mg free), incubated with Versene at 37° C. until cells detached, counted and aliquoted at 1 million cells per assay tube. Cells were then washed twice and resuspended in ice-cold FACS buffer (0.01 M HEPES, 0.15M NaCl, 0.1% NaN₃ and 4% FBS). Primary antibody at 1 μg/mL was added to the cells. Cells were incubated on ice for 30 min, washed 2-3 times and resuspended in 1 mL of ice-cold FACS buffer. R-PE-conjugated goat anti-human antibody (Jackson ImmunoResearch Laboratory) at 1:100 dilution was added and cells were incubated on ice for 30 min. After washing 3 times with 1 mL of ice-cold FACS buffer, cells were fixed with 0.5-1 mL of 1% formaldehyde in PBS and analyzed by flow cytometry.
# [2] = target: T1, GPNMB (CG56972) as expressed by human …; test: cell-based or functional assay
# [3] = target: T1, GPNMB (CG56972) as expressed by human …; test: cell-based or functional assay; remark: listed apart in the source
# [4] = target: T1, GPNMB (CG56972) as expressed by human …; test: cell-based or functional assay; remark: listed apart in the source
# [5] = target: T1, GPNMB (CG56972) as expressed by human …; test: cell-based or functional assay; remark: listed apart in the source
# [6] = target: T1, GPNMB (CG56972) as expressed by human …; test: cell-based or functional assay; remark: listed apart in the source
# [7] = target: T1, GPNMB (CG56972) as expressed by human …; test: cell-based or functional assay; remark: listed apart in the source
# [8] = target: T2, Recombinant human GPNMB extra-cellular …; test: ELISA on plates coated with recombinant GPNMB (His and V5 tagged), detection with anti-FLAG M2-HRP
# Protocol: Plates were then blocked and washed. […] Plates were incubated for 1 h and washed. HRP-conjugated anti-FLAG M2 mAb (Sigma, St. Louis, Mo.) was added into the wells for 1 h, washed and the reaction developed with the TMB substrate reagent as described by the manufacturer (Pharmingen, San Jose, Calif.).
# [9] = target: T3, CD3 on purified human T cells (human, UniProt P07766 23-207; P04234 22-171; P09693 23-182); test: flow cytometry on purified human T cells, mouse anti-FLAG mAb and PE-conjugated goat anti-mouse Ig F(ab')2
# T3 construct: also called human CD3 molecules
# T3 sequence (P07766 23-207 limits assumed, chain 1 of 3): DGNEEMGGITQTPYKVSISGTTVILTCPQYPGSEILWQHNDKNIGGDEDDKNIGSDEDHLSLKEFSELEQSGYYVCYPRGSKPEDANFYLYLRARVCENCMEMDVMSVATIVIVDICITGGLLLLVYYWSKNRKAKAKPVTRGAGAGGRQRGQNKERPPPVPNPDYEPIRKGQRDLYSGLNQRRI
# T3 sequence (P04234 22-171 limits assumed, chain 2 of 3): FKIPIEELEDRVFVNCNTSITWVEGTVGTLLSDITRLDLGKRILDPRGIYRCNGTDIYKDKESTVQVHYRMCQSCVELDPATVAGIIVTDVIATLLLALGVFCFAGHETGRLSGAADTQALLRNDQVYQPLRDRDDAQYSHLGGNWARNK
# T3 sequence (P09693 23-182 limits assumed, chain 3 of 3): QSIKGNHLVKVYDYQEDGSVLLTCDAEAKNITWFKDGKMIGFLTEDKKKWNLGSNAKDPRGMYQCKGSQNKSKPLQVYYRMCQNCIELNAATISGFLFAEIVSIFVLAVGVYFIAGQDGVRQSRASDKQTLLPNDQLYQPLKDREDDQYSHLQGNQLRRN
# [10] = target: T2, Recombinant human GPNMB extra-cellular …; test: Biacore, mAb captured on protein A
# Protocol: Certain Hybridoma cell supernatants (29) were analyzed for binding to GPNMB by BiaCore® 2000 biosensor equipped with a research-grade CM5 sensor chip. A 1:25 dilution of cell supernatant was passed over a protein A surface for 5 min followed by washing the surface for 10 mins. […] GPNMB binding data for each mAb was normalized for the amount of mAb captured on each surface. Normalized, drift corrected responses were also measured. The sensorgrams were fit to a simple 1:1 kinetic model.
binder,measurement,setting,value
"Mab2.10.2 (antibody, IgG2, V domains shown, Fully human hybridoma antibody (XenoMouse XMG2, IgG2 kappa); also called CR011.2.10.2) VH: QLVESGGGVVQPGRSLRLSCAASGFAFSSYGMHWVRQAPGKGLEWVAVISYDGNNKYYADSVKGRFTISRDNSKNTLYLQMNSLRAEDTAVYYCARDLVVRGIRGYYYYFGMDVWGQGTTVTVSS VL: not shown",Geo Mean Ratio (relative to pK16),[1],2.6 ratio
same,killing of UACC-62 cells with saporin-conjugated secondary antibody (colony count),[2],> 70%
"CR011-vcMMAE (antibody, human IgG2, vcMMAE (maleimidocaproyl-valine-citrulline-monomethylauristatin E) on cysteine thiols of reduced disulfides, about 4 per antibody; positions not given) heavy: QVQLQESGPGLVKPSQTLSLTCTVSGGSISSFNYYWSWIRHHPGKGLEWIGYIYYSGSTYSNPSLKSRVTISVDTSKNQFSLTLSSVTAADTAVYYCARGYNWNYFDYWGQGTLVTVSSASTKGPSVFPLAPCSRSTSESTAALGCLVKDYFPEPVTVSWNSGALTSGVHTFPAVLQSSGLYSLSSVVTVPSSNFGTQTYTCNVDHKPSNTKVDKTVERKCCVECPPCPAPPVAGPSVFLFPPKPKDTLMISRTPEVTCVVVDVSHEDPEVQFNWYVDGVEVHNAKTKPREEQFNSTFRVVSVLTVVHQDWLNGKEYKCKVSNKGLPAPIEKTISKTKGQPREPQVYTLPPSREEMTKNQVSLTCLVKGFYPSDIAVEWESNGQPENNYKTTPPMLDSDGSFFLYSKLTVDKSRWQQGNVFSCSVMHEALHNHYTQKSLSLSPGK VL: not shown","Clonogenic Assay with 1.15.1-AE IC50, SR",[3],296 ng/mL and 2000 pM
same,"Clonogenic Assay with 1.15.1-AE IC50, THP-1",[3],207 ng/mL and 1400 pM
same,"Clonogenic Assay with 1.15.1-AE IC50, U937",[3],340 ng/mL and 2400 pM
same,"IC50 of colony formation (clonogenic assay, % of control) on SK-Mel-2 cells transfected with control siRNA (circles)",[4],0.22 µg/mL
same,"IC50 of colony formation (clonogenic assay, % of control) on mock-transfected SK-Mel-2 cells (diamonds)",[4],0.33 µg/mL
same,"IC50 of colony formation (clonogenic assay, % of control, 96 h) on HEK293 cells transfected with GPNMB (circles); Vector + CR011-vcMMAE (diamonds) is printed as >1000",[5],0.3 µg/mL
same,"CR011-AE IC50, clonogenic assay, SF-268 (weakly expressing)",[6],> 1.5 µg/mL
same,"CR011-AE IC50, clonogenic assay, SF-539",[6],1.03 µg/mL
same,"CR011-AE IC50, clonogenic assay, SK-MEL-2",[6],0.303 µg/mL
same,"CR011-AE IC50, clonogenic assay, SNB-78",[6],0.449 µg/mL
same,"CR011-AE IC50, clonogenic assay, U-118-MG",[6],1.25 µg/mL
same,"CR011-AE IC50, clonogenic assay, XF-498",[6],0.216 µg/mL
same,"Clonogenic Assay with 1.15.1-AE IC50, G361",[7],1050 ng/mL and 6500 pM
same,"Clonogenic Assay with 1.15.1-AE IC50, RPMI-7951",[7],972 ng/mL and 6000 pM
same,"Clonogenic Assay with 1.15.1-AE IC50, SK-Mel 2",[7],111 ng/mL and 750 pM
same,"Clonogenic Assay with 1.15.1-AE IC50, SK-Mel 5",[7],237 ng/mL and 1600 pM
same,"Clonogenic Assay with 1.15.1-AE IC50, UACC-62",[7],697 ng/mL and 4300 pM
same,"Clonogenic Assay with 1.15.1-AE IC50, UACC-257",[7],825 ng/mL and 5500 pM
same,"Clonogenic Assay with 1.15.1-AE IC50, WM-266-4",[7],345 ng/mL and 2300 pM
"Mab2.22.1 (antibody, IgG2, V domains shown, Fully human hybridoma antibody (XenoMouse XMG2, IgG2 kappa); also called CR011.2.22.1) VH: QVQLEQSGPGLVKPSQNLSLTCTVSGGSISSGGYFWSWIRQHPGKGLEWIGYIYYSGNTYYNPSLKSRVTISVDTSKNQFSLKLSSVTAADTAVYYCARDYYYDTSGFSYRYDWYYGMDVWGQGTTVTVSS VL: DIQLTQSPSSLSASVGDRVTITCRASQGIRNDLGWYQQKPGKAPKRLIYAASSLQNGVPSRFSGSGSGTEFTLTISSLQPEDFATYYCLQHNTYPAFGQGTKVEIKR",Geo Mean Ratio (relative to pK16),[1],4.46 ratio
same,killing of UACC-62 cells with saporin-conjugated secondary antibody (colony count),[2],> 70%
"CR011 single chain antibody (CR011 scFv), VL-L4-VH, Flag tag (scFv, also called CR011 scFv monomer; mono-specific anti-GPNMB scFv) scFv: EIVMTQSPATLSVSPGERATLSCRASQSVDNNLVWYQQKPGQAPRLLIYGASTRATGIPARFSGSGSGTEFTLTISSLQSEDFAVYYCQQYNNWPPWTFGQGTKVEIKLSADDAKKDAAKKDDAKKDDAKKDLQVQLQESGPGLVKPSQTLSLTCTVSGGSISSFNYYWSWIRHHPGKGLEWIGYIYYSGSTYSNPSLKSRVTISVDTSKNQFSLTLSSVTAADTAVYYCARGYNWNYFDYWGQGTLVTVSSASDYKDDDDK",binding result,[8],binds
same,binding result,[9],no binding (tested: 5 ug/sample/100 ul)
"Mab1.2.2 (antibody, IgG2, V domains shown, Fully human hybridoma antibody (XenoMouse XMG2, IgG2 kappa); also called CR011.1.2.2) VH: ITLKESGPTLVKPTQTLTLTCTFSGFSLSAGGVGVGWIRQPPGKALEWLALIYWNDDKRYSPSLRSRLTITKDTSKNQVVLTITNMDPVDTATYYCAHSHYDYDWGSYFDYWGQGTLVTVSS VL: DIVMTQTPLSLPVTPGEPASISCRSSQSLLDSDDGNTYLDWYLQKPGQSPQLLIYTLSYRASGVPDRFSGSGSGTDFTLNISRVEAEDVGVYYCMQRIEFPITFGQGTRLEIKR",Geo Mean Ratio (relative to pK16),[1],1.24 ratio
same,Kd,[10],96 nM
same,koff,[10],0.00089 s⁻¹
same,kon,[10],9260 M⁻¹ s⁻¹
"Mab1.10.2 (antibody, IgG2, V domains shown, Fully human hybridoma antibody (XenoMouse XMG2, IgG2 kappa)) VH: QVQLQESGPGLVKPSETLSLTCTVSGDSISNYYWSWIRQPPGKGLEWIGYFYYSGSTNYNPSLKSRVTISVDTSKNQFSLKLSSVTAADTAVYYCARDRGWADYWGQGTLVTVSS VL: EIVLTQSPGTLSLSPGERATLSCRTSQSISSSYLAWYQQKPGQVPRLLIYGASSRATGIPDRFSGSGSGTDFTLTISRLEPEDFAVYYCQQYGSSITFGQGTRLEIKR",Kd,[10],118 nM
same,koff,[10],0.000466 s⁻¹
same,kon,[10],3960 M⁻¹ s⁻¹
"Mab1.7.1 (antibody, IgG2, V domains shown, Fully human hybridoma antibody (XenoMouse XMG2, IgG2 kappa)) VH: QVQLQESGPGLVKPSQTLSLTCTVSGGSISSANYYWTWIRQHPGKGLEWIGYIYYSGSTYCNPSLKSRVIISVDTSKNQFSLKLSSVTAADTAVYYCARGYNWNYFDYWGQGTLVTVSS VL: DIVMTQSPATLSVSPGERATLSCRASQSVSSNLAWYQERPGQAPRLLIYGASTRATGIPARFSGSGSGTEFTLTISSLQSEDFAVYYCQQYNKWPPWTFGQGTKVEIER",Kd,[10],122 nM
same,koff,[10],0.00144 s⁻¹
same,kon,[10],11800 M⁻¹ s⁻¹
